The values below are quoted from earlier work in PMC6832444.

pKd: −log10 of the molar value.

This series addresses PD-L2 (Homo sapiens) (UniProt Q9BQ51).
Chain of UniProt Q9BQ51 (Q9BQ51 20-220): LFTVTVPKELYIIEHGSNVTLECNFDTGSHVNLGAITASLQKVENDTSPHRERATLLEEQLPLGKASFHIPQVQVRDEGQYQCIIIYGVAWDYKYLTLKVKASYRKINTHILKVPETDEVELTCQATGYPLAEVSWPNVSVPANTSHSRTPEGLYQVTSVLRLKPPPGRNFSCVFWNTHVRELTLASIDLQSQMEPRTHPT

What is called pKd is the Kd on a negative log10 scale, so that one unit is a factor of ten. With PD-1 (from UniProt Q15116), the pKd is 6.85.
